± gives the uncertainty stated by the source.
Assay: protein stability index of a GFP-peptide fusion (yeast GPS) (PSI 1-4); higher = more stable; sorted into four equal gates, so the index is relative within each strain
Settings: pdr5∆
Procedure, shortened: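 Tiled 17-residue peptides from yeast proteins were fused downstream of GFP on a plasmid that also expresses Cherry, and the pooled library was carried in yeast. Mid-log cultures grown in leucine-free medium were sorted into four equal gates by GFP/Cherry fluorescence ratio. Plasmids from each gate were PCR-amplified and Illumina-sequenced, and reads were assigned to strains by barcodes. Each peptide's protein stability index is the sum, over gates, of the gate's read frequency multiplied by its gate number.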

Sequence	protein stability index
PDPNFENSIGYNNRKCW [PRP8]	2.97 ± 0.1
PDRQSMDSRVAHGNILI [SRB5]	3.12 ± 0.064
PEDALVNDFSDITSDQL [SMC3]	2.85 ± 0.091

Same assay, conditions: san1∆

Sequence	protein stability index
NKQPRNESFNRRISSMP [YAR002W/NUP60]	2.53 ± 0.078
NKSTSSEAEYSKDIETL [YIL149C/MLP2]	3.21 ± 0.062
NKTAHLSIPGKSTPEGT [SNU114]	2.79 ± 0.048
NKTKAVDNTVPSTTLFN [YOR098C/NUP1]	3.04 ± 0.054
NKVVVNLNDAGLALQLF [RPN2]	2.68 ± 0.12
NLCKIIEPFECVEISHI [RPN6]	1.97 ± 0.11
NLFKINSIDVPIRINST [YMR129W/POM152]	2.02 ± 0.058
NLGEYYAQIGDKDNAEK [RPN7]	2.49 ± 0.087
NLGIPKIAYRGVKDCQE [SSN2]	1.54 ± 0.26
NLGRAVFWEIQSRVPTS [PRP8]	2.17 ± 0.092
NLLPKKSAKTAKASQEL [HTA2]	2.87 ± 0.11
NLLVLRGKNEIIQNAQR [RPO21]	1.69 ± 0.16
NLNTDKLKNNASRSQLE [YJL039C/NUP192]	2.81 ± 0.11
NLNVYIQVFEKPFLKKT [CDC53]	2.57 ± 0.074
NLPPHYALFLKALRRKI [SSN2]	2.8 ± 0.22
NLQQDKTNFQDVILDYQ [REC8]	3.4 ± 0.071
NLSSTPMETLLSGLSAD [YML031W/NDC1]	2.53 ± 0.055
NLTPANILNMSMNNDFQ [PGD1]	3.01 ± 0.068
NMEIRNLRLKILTIIEE [GRR1]	1.83 ± 0.078
NMNNGGKELDSLDLNNL [PGD1]	3.06 ± 0.079
NMTTIADRNDDDEGSFA [SRB6]	3.33 ± 0.094
NMVRNNNNNTIDESMPD [GRR1]	3.02 ± 0.074
NNETEQLKAEEKKILNQ [SMC1]	3.13 ± 0.17
NNGDKDHLKLVSLFSNL [YIL149C/MLP2]	2.5 ± 0.26
NNIEENLRLLNSIDSTS [ECM29]	3.18 ± 0.044
NNNGLPQNGNINNNINI [GAL11]	3.39 ± 0.044

Sequence	protein stability index
NNNGNSAASKKKKNKNK [SRP21]	3.15 ± 0.057
NNNSSNEKEQLSFINPK [SEC65]	2.8 ± 0.034
NNPKIQTKDSVKEIVLP [IRR1]	3 ± 0.059
NNPKVKTSKRTKRWYKN [RPS11A]	3.21 ± 0.12
NNPQVVNAITVAQQQVQ [SNF5]	1.42 ± 0.075
NNQSKEKADYEDEMMHE [RPN12]	2.67 ± 0.095
NNTHVGRQFCNRLSRIH [YLR018C/POM34]	2.3 ± 0.23
NNTNTDNVSGLTRNAPL [SNF2]	3.05 ± 0.039
NPFTSATSSTNANAGLF [YOR098C/NUP1]	2.82 ± 0.093
NPYNIVPQGKIVALTNA [SMC3]	2.82 ± 0.12
NQIWNIALNLASKKFGK [SSN2]	3.06 ± 0.067
NQLTESASHFEQYTKKI [YJL041W/NSP1]	2.76 ± 0.082
NQNSSTGAGAFGTGQST [YJL041W/NSP1]	2.31 ± 0.11
NRPNTLDPALLRPGRID [RPT1]	3.16 ± 0.064
NRQQKKRRFDPSSSDSN [RRP6]	3.05 ± 0.053
NRQTLMFTATMTPVIEK [PRP28]	2.42 ± 0.052
NRQVMHKMGVERSSKRL [SIR3]	3.46 ± 0.14
NRSEQNGQEQQGPVKNT [RGR1]	3.11 ± 0.11
NSCFSDGSQQNLQQDKT [REC8]	2.18 ± 0.2
NSDDIIDVDMDASPAPS [SRB5]	2.78 ± 0.056
NSDDILSLHENYPQDEI [POP1]	2.82 ± 0.084
NSDKPRDVYVFDKVEVQ [DIS3]	3.1 ± 0.056
NSESTTQGGNVNLDNTA [RPT5]	3.27 ± 0.09
NSFYYTSLLYLSTLEPS [RPN9]	1.47 ± 0.1
NSGKQQYYRGLPLYEKN [SWP82]	2.9 ± 0.075
NSIDINYKGLPKKYKEN [SMC1]	3.21 ± 0.07

Sequence	protein stability index
NSINNNNIKNGTNNISQ [YDL088C/ASM4]	2.74 ± 0.046
NSITKDNIDYAPMRLAT [YJL039C/NUP192]	2.71 ± 0.05
NSLKETLQDFHLIFSNA [SNF2]	2.27 ± 0.13
NSNINTLTASPDGTLIA [ASC1]	2.88 ± 0.061
NSNTTNQNSSTGAGAFG [YJL041W/NSP1]	3.03 ± 0.051
NSRGKFDDACNQIWNIA [SSN2]	2.87 ± 0.12
NSSEEDKKKGQNVTSET [ITC1]	3.06 ± 0.17
NSSTSPAPSIPSTGFKF [YLR335W/NUP2]	2.48 ± 0.043
NSTATMQHNPLAGKRGP [PGD1]	3 ± 0.042
NSTSKNTLLQQQNYSKV [SWI1]	2.08 ± 0.078
NTEITQKSSKENIENEE [ECM29]	2.76 ± 0.078
NTFQKTVEPVYQMHIKT [FAS1]	1.58 ± 0.062
NTHNKSTKRVTKHPSLK [POP7]	2.67 ± 0.044
NTILNSSSDFRLHYYPK [BRR2]	2.81 ± 0.048
NTKVPVDIVNQWFLQYQ [YML103C/NUP188]	1.85 ± 0.058
NTNPSPLKTQTKNGTPN [GAL11]	2.58 ± 0.049
NTPLSLPTRGTLESLEN [COR1]	2.6 ± 0.27
NTRKNMSISLESSKALA [DIS3]	1.96 ± 0.13
NTTKTADTKAPTFTFGS [YLR335W/NUP2]	3.21 ± 0.061
NTVMLQGIFKNSSNYFG [AAR2]	2.15 ± 0.14
NTVPQVTNFNSTNEDQN [SRB5]	3.02 ± 0.051
NVAHRIKEDIKKQPSIL [SNF2]	3.05 ± 0.097
NVDVCVMEIGKDAEYLR [PUP1]	2.7 ± 0.066
NVFTPEISSQIEILVKD [RRI2]	2.65 ± 0.15
NVGDNNSTASSSNISPE [ARP7]	3.04 ± 0.055
NVHGSLEPFLLMLEDTD [BRR2]	2.87 ± 0.11

Sequence	protein stability index
NVKTSVSQLYRISEKSV [RPO31]	3.12 ± 0.076
NVLVTMPVAPTMEVKSF [YMR129W/POM152]	1.95 ± 0.11
NVSFVLPDEKSDAMSID [YCG1]	3.25 ± 0.052
NVTFGSKKDPRILKNVS [YMR153W/NUP53]	2.81 ± 0.045
NVTSSGDHNKLRSTIAN [YML103C/NUP188]	2.35 ± 0.071
NWIKPSDSEIPPLLVYK [PRP8]	2.21 ± 0.075
NWLSIFNDFSNIKTSEW [REC8]	2.94 ± 0.091
NWYKSKKKAFTKYSAKY [RPL3]	3.07 ± 0.079
NYDIITASSLAHDYNND [YML103C/NUP188]	2.61 ± 0.087
NYHPNASITPYKLVNKN [RPN4]	2.59 ± 0.083
PAGFTHKLSNWLFGWND [YDL088C/ASM4]	3.33 ± 0.053
PAGHAGNPTNISSPIVA [YDL088C/ASM4]	2.67 ± 0.064
PAIPPVIDLEKIKFDES [BRR2]	2.67 ± 0.086
PANHLQSDFCLSWCPSR [YGL100W/SEH1]	2.43 ± 0.16
PCVEDGFVIQDRETALD [RPB2]	3.16 ± 0.19
PDAQNELPKFILSDSPL [DIS3]	2.87 ± 0.044
PDCKIKIAHGTTTLAFR [PRE2]	2.65 ± 0.066
PDDEKFTDENTIVLSLN [RPC40]	3 ± 0.16
PDIADIPRTFRTPVPST [SNF5]	2.04 ± 0.064
PDKDYLLSIPISCPLIG [FAS1]	1.25 ± 0.19
PDLQFIVISLKNTMFEK [SMC1]	3.01 ± 0.05
PDPNFENSIGYNNRKCW [PRP8]	2.98 ± 0.21
PDRQSMDSRVAHGNILI [SRB5]	3.02 ± 0.058

— the supplement of paper PMC9732359
